This passage reports HBV DNA replication, titration of plasmid molar ratios results from patent US6060595.

The experiment has as its target HBV 21 kDa viral core protein (p21) (human hepatitis B virus (HBV)).

In the case of “Met-p22 (precore protein lacking the signal peptide sequence and having instead an initial methionine), expressed from pCMVKM22”, the HBV DNA replication, titration of plasmid molar ratios stood at 15 fold.
